Results from paper PMC9482650, “Quantitative fragmentomics allow affinity mapping of interactomes” (Nature Communications, 2022).

Key:
Assay in all cases: holdup assay
Set-up in all cases: key: below the threshold = too weak to quantify, mostly under pKd 3.1 to 4
PDZRN3_1, Q9UPQ7 = target: T1, PDZRN3_1, Q9UPQ7
T1 sequence (Q9UPQ7 244-349, limits assumed, looked up): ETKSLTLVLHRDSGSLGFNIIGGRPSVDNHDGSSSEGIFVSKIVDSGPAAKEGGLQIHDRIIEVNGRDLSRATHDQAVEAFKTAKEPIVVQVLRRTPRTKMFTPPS

MAGI2_3, Q86UL8 = target: MAGI2_3, Q86UL8
MAGI2_3, Q86UL8, sequence (Q86UL8 600-682): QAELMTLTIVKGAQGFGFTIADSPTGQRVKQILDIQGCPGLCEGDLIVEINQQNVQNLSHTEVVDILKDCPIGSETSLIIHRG

PARD3B_1, Q8TEW8 = target: T2, PARD3B_1, Q8TEW8
T2 sequence (Q8TEW8 196-299, limits assumed, looked up): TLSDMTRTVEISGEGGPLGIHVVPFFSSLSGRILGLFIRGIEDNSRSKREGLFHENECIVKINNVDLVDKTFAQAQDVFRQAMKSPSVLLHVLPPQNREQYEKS

GRIP1_5, Q9Y3R0 = target: T3, GRIP1_5, Q9Y3R0
T3 sequence (Q9Y3R0 568-668, limits assumed, looked up): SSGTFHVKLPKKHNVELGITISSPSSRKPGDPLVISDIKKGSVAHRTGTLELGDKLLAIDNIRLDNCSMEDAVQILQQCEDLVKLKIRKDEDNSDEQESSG

FRMPD4, Q14CM0 = target: FRMPD4, Q14CM0
FRMPD4, Q14CM0, sequence (Q14CM0 67-160): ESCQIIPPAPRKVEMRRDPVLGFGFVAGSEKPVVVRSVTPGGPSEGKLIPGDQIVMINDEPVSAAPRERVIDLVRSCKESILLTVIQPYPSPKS

LIN7A, O14910 = target: T4, LIN7A, O14910
T4 sequence (O14910 103-200, limits assumed, looked up): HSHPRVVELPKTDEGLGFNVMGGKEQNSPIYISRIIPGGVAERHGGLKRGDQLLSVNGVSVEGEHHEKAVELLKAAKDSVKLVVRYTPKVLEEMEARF

NHERF3_1, Q5T2W1 = target: T5, NHERF3_1, Q5T2W1
T5 sequence (Q5T2W1 4-100, limits assumed, looked up): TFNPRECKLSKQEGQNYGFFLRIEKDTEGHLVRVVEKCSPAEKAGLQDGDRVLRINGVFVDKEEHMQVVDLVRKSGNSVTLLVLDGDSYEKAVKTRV

PDLIM1, O00151 = target: PDLIM1, O00151
PDLIM1, O00151, sequence (O00151 1-87): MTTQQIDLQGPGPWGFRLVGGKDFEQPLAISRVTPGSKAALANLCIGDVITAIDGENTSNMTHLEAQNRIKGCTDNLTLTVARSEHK

MAGI2_6, Q86UL8 = target: MAGI2_6, Q86UL8
MAGI2_6, Q86UL8, sequence (Q86UL8 1141-1229): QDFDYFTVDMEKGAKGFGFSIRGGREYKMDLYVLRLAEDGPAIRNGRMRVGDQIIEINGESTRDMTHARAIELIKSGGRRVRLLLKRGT

NOS1, P29475 = target: NOS1, P29475
NOS1, P29475, sequence (P29475 9-101): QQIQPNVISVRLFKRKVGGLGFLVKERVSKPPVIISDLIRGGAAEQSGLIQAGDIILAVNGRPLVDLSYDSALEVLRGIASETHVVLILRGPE

APBA2_1, Q99767 = target: T6, APBA2_1, Q99767
T6 sequence (Q99767 563-664, limits assumed, looked up): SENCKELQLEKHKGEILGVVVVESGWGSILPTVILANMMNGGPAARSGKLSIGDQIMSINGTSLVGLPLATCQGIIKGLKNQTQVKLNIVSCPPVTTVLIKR

DLG3_1, Q92796 = target: T7, DLG3_1, Q92796
T7 sequence (Q92796 125-227, limits assumed, looked up): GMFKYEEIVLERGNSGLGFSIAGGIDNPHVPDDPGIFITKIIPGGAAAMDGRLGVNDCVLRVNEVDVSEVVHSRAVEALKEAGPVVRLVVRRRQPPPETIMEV

FRMPD1, Q5SYB0 = target: T8, FRMPD1, Q5SYB0
T8 sequence (Q5SYB0 52-145, limits assumed, looked up): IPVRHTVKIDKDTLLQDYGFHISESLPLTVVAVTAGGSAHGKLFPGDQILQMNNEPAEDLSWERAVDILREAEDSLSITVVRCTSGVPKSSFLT

MPDZ_5, O75970 = target: T9, MPDZ_5, O75970
T9 sequence (O75970 695-796, limits assumed, looked up): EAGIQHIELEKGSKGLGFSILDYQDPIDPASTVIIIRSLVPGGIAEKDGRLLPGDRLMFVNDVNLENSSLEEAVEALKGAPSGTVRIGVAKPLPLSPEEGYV

PARD3_3, Q8TEW0 = target: PARD3_3, Q8TEW0
PARD3_3, Q8TEW0, sequence (Q8TEW0 582-685): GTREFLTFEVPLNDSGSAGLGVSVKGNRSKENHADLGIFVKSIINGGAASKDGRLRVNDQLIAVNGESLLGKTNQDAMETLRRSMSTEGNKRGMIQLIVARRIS

CARD11, Q9BXL7 = target: T10, CARD11, Q9BXL7
T10 sequence (Q9BXL7 662-765, limits assumed, looked up): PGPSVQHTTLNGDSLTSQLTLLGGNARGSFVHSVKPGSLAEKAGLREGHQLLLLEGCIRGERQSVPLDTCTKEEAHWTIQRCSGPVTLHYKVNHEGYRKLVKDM

MPDZ_12, O75970 = target: T11, MPDZ_12, O75970
T11 sequence (O75970 1857-1958, limits assumed, looked up): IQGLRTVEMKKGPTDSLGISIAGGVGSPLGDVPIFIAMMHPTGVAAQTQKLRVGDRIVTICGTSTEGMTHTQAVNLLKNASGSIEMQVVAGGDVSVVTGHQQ

DLG4_1, P78352 = target: DLG4_1, P78352
DLG4_1, P78352, sequence (P78352 62-152): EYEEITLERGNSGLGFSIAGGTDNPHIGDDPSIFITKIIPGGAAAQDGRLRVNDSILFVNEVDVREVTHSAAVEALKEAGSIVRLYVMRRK

Inadl_3, Q8NI35 = target: Inadl_3, Q8NI35
Inadl_3, Q8NI35, sequence (Q8NI35 359-469): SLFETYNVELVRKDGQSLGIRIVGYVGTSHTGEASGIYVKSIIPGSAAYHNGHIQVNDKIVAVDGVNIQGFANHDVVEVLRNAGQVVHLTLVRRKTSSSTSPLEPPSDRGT

LDB3, O75112 = target: LDB3, O75112
LDB3, O75112, sequence (O75112 1-94): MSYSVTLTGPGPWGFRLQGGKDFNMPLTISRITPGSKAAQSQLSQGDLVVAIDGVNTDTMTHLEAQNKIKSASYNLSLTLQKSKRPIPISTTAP

IL16_4, Q14005 = target: IL16_4, Q14005
IL16_4, Q14005, sequence (Q14005 1229-1329): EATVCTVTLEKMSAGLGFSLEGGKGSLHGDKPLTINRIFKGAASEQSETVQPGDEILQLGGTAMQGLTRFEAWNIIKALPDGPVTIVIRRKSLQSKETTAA

GRID2IP_1, A4D2P6 = target: GRID2IP_1, A4D2P6
GRID2IP_1, A4D2P6, sequence (A4D2P6 1-87): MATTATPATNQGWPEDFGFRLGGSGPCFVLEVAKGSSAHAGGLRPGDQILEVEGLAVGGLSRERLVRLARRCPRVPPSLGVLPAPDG

APBA3_1, O96018 = target: T12, APBA3_1, O96018
T12 sequence (O96018 389-490, limits assumed, looked up): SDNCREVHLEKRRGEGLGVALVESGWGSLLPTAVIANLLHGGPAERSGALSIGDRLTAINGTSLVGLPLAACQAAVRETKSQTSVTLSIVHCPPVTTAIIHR

GRIP1_7, Q9Y3R0 = target: T13, GRIP1_7, Q9Y3R0
T13 sequence (Q9Y3R0 999-1096, limits assumed, looked up): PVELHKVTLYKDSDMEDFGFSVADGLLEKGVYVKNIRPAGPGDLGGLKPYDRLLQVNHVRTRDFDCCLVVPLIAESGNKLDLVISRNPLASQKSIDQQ

[1] = plain residues with an end cap or a label only (N-terminal biotin on a linker: ado-ado)
[2] = plain residues with an end cap or a label only (N-terminal biotin on a linker: ttds)

## SVVSERISSV [HTR2C, P28335]
PDZRN3_1, Q9UPQ7; [1]
  pKd: 3.51
MAGI2_3, Q86UL8; [1]
  pKd: 4.3
PARD3B_1, Q8TEW8; [1]
  pKd: below the threshold
GRIP1_5, Q9Y3R0; [1]
  pKd: below the threshold
FRMPD4, Q14CM0; [1]
  pKd: below the threshold
LIN7A, O14910; [1]
  pKd: below the threshold
NHERF3_1, Q5T2W1; [1]
  pKd: below the threshold
PDLIM1, O00151; [1]
  pKd: below the threshold
MAGI2_6, Q86UL8; [1]
  pKd: 4.64
NOS1, P29475; [1]
  pKd: 3.58
APBA2_1, Q99767; [1]
  pKd: below the threshold
DLG3_1, Q92796; [1]
  pKd: below the threshold
FRMPD1, Q5SYB0; [1]
  pKd: below the threshold
MPDZ_5, O75970; [1]
  pKd: below the threshold
PARD3_3, Q8TEW0; [1]
  pKd: below the threshold
CARD11, Q9BXL7; [1]
  pKd: below the threshold
MPDZ_12, O75970; [1]
  pKd: below the threshold
DLG4_1, P78352; [1]
  pKd: 3.94
Inadl_3, Q8NI35; [1]
  pKd: below the threshold
LDB3, O75112; [1]
  pKd: below the threshold
IL16_4, Q14005; [1]
  pKd: below the threshold
GRID2IP_1, A4D2P6; [1]
  pKd: below the threshold
APBA3_1, O96018; [1]
  pKd: below the threshold
GRIP1_7, Q9Y3R0; [1]
  pKd: below the threshold

## MERLRVETDV [ARHGEF16, Q5VV41]
PDZRN3_1, Q9UPQ7; [2]
  pKd: 3.53
MAGI2_3, Q86UL8; [2]
  pKd: 3.53
PARD3B_1, Q8TEW8; [2]
  pKd: below the threshold
GRIP1_5, Q9Y3R0; [2]
  pKd: below the threshold
FRMPD4, Q14CM0; [2]
  pKd: below the threshold
LIN7A, O14910; [2]
  pKd: below the threshold
NHERF3_1, Q5T2W1; [2]
  pKd: below the threshold
PDLIM1, O00151; [2]
  pKd: 4
MAGI2_6, Q86UL8; [2]
  pKd: 4.55
NOS1, P29475; [2]
  pKd: below the threshold
APBA2_1, Q99767; [2]
  pKd: below the threshold
DLG3_1, Q92796; [2]
  pKd: 4.59
FRMPD1, Q5SYB0; [2]
  pKd: below the threshold
MPDZ_5, O75970; [2]
  pKd: 3.6
PARD3_3, Q8TEW0; [2]
  pKd: below the threshold
CARD11, Q9BXL7; [2]
  pKd: below the threshold
MPDZ_12, O75970; [2]
  pKd: below the threshold
DLG4_1, P78352; [2]
  pKd: 5.13
Inadl_3, Q8NI35; [2]
  pKd: 3.8
LDB3, O75112; [2]
  pKd: below the threshold
IL16_4, Q14005; [2]
  pKd: below the threshold
GRID2IP_1, A4D2P6; [2]
  pKd: below the threshold
APBA3_1, O96018; [2]
  pKd: below the threshold
GRIP1_7, Q9Y3R0; [2]
  pKd: below the threshold

## IQREDQETAV [DGKZ, Q13574]
PDZRN3_1, Q9UPQ7; [2]
  pKd: 4.91
MAGI2_3, Q86UL8; [2]
  pKd: 4.45
PARD3B_1, Q8TEW8; [2]
  pKd: below the threshold
GRIP1_5, Q9Y3R0; [2]
  pKd: below the threshold
FRMPD4, Q14CM0; [2]
  pKd: 3.93
LIN7A, O14910; [2]
  pKd: below the threshold
NHERF3_1, Q5T2W1; [2]
  pKd: 5.14
PDLIM1, O00151; [2]
  pKd: below the threshold
MAGI2_6, Q86UL8; [2]
  pKd: 4.63
NOS1, P29475; [2]
  pKd: 4.34
APBA2_1, Q99767; [2]
  pKd: below the threshold
DLG3_1, Q92796; [2]
  pKd: 4.26
FRMPD1, Q5SYB0; [2]
  pKd: below the threshold
MPDZ_5, O75970; [2]
  pKd: below the threshold
PARD3_3, Q8TEW0; [2]
  pKd: below the threshold
CARD11, Q9BXL7; [2]
  pKd: below the threshold
MPDZ_12, O75970; [2]
  pKd: below the threshold
DLG4_1, P78352; [2]
  pKd: 4.72
Inadl_3, Q8NI35; [2]
  pKd: below the threshold
LDB3, O75112; [2]
  pKd: below the threshold
IL16_4, Q14005; [2]
  pKd: below the threshold
GRID2IP_1, A4D2P6; [2]
  pKd: below the threshold
APBA3_1, O96018; [2]
  pKd: below the threshold
GRIP1_7, Q9Y3R0; [2]
  pKd: 3.74
